Test results reported in PMC3260166, “HspB2/Myotonic Dystrophy Protein Kinase Binding Protein (MKBP) as a Novel Molecular Chaperone: Structural and Functional Aspects” (PLoS ONE, 2012).

B1: human HspB2 / Myotonic Dystrophy Protein Kinase Binding Protein (MKBP) (natural protein, UniProt Q16082 1-182, looked up)
chain: MSGRSVPHAHPATAEYEFANPSRLGEQRFGEGLLPEEILTPTLYHGYYVRPRAAPAGEGSRAGASELRLSEGKFQAFLDVSHFTPDEVTVRTVDNLLEVSARHPQRLDRHGFVSREFCRTYVLPADVDPWRVRAALSHDGILNLEAPRGGRHLDTEVNEVYISLLPAPPDPEEEEEAAIVEP
notes: HspB2 (MKBP), human; The reverse primer carries the stop codon (TCA), so the C-terminal His tag of pET21a is probably not translated; also called MKBP/HspB2; source: E. coli BL21 DE3, purified (20% ammonium sulfate precipitation, Phenyl Sepharose)
B2: human HspB2 labelled at its sole cysteine (Cys118) with AIAS or LYI (natural protein, UniProt Q16082 1-182, looked up)
chain: MSGRSVPHAHPATAEYEFANPSRLGEQRFGEGLLPEEILTPTLYHGYYVRPRAAPAGEGSRAGASELRLSEGKFQAFLDVSHFTPDEVTVRTVDNLLEVSARHPQRLDRHGFVSREFCRTYVLPADVDPWRVRAALSHDGILNLEAPRGGRHLDTEVNEVYISLLPAPPDPEEEEEAAIVEP
modifications: cysteine at 118 covalently labelled with AIAS (4-acetamido-4'-((iodoacetyl)amino)stilbene-2,2'-disulfonic acid; donor copy) or with Lucifer Yellow Iodoacetamide (LYI; acceptor copy)
notes: HspB2 (MKBP), human; the same recombinant protein as m1, labelled at the sole cysteine residue (118th position); Two differently labelled copies of the same protein (AIAS donor, LYI acceptor) mixed in equimolar ratio for FRET; also called AIAS-labeled HspB2; LYI-labeled HspB2; source: E. coli BL21 DE3, purified, then labelled with AIAS or LYI and desalted (PD10)

Legend:
[1] = biological target: the molecule itself; assay: AUC; sedimentation velocity, 0.125, 1 and 3 mg/ml HspB2 in TNE buffer (50 mM Tris HCl pH 7.4, 1 mM EDTA, 100 mM NaCl), 40,000 rpm, 20°C, interference optics, SEDFIT
[2] = biological target: the molecule itself; assay: FRET or BRET; subunit exchange: AIAS- and LYI-labelled HspB2 mixed in equimolar ratios in 20 mM HEPES pH 7.4, 100 mM NaCl, at 37°C or 20°C; excitation 332 nm

| Protein | binding result [1] | binding result [2] |
| --- | --- | --- |
| B1 | binds |  |
| B2 |  | binds |
